The nature of the data set: label from the status in PepcDB records.
For the sequence “MKRKSIFLTFGLLVLSWIGCVENDLPYPTIVGQITEMEVAGMTSCRILGASNTVEIKVADTIDLRDLRVEKLVVTEGMKVYPDSAACLDIAHFPDTGFVSADSLPAGMDTRMNFLNPVKFRLSLYQDYDWTVNVSRDIVRKIKIKNQVGSALIDDYTKNVIVYVDSTEQPSLRNIEIEELQLGSSIAQTTPDPSKVVDFTRPRVFYVTAFDETEEWTLSVQYPNANVQLTQLSAWTRRAYVSGSISKGEVEAEYRKAGETVWESVLPNEISYEGEDFLIMMTHLAAGTNYEYRLTMNGTVGEILTFTTDTIMQVPNLGFDDWVMKNEKTWYPNATLDDADHFWDSGNEGASIASRNPTAPETGDVVKGRAVRMASDYISIASKFAAGNIYTGDFVGLAGIEGAELDFGQPYTGRPSALKGYYRYTPGVIDQAKAPYDALMGQTDSCHIYIGLFDWSAPFRVNTTTGTFVDLTWNNESMIAFGELKSNEATGSEYKQFKINLTYRDYFTHPKYILIVASASKYGDYFTGSTSSVMYLDECELVFE”, the protein production entry is “failed”.
Consider “MKRKTAVKWLAVLAGAGLLYWGNKTYLNVSPKEIRVWVLSFGVFAPLMFIGISIVRPLVLFPVSVISIAGGLAFGPLLGTLYTLFGSMCASAVSFFAAGLFSAKKNGHYERLEAIQKQMEDNGFFYIFLLRILPINFDFVSYAAGLSNVKALPYFAATAVGIIPGTIALNVLGASFLAGNLPAFFMVLALYIVFISLPFIFRKKMQNLFQESN”, for which the protein production result is “failed”.
In the case of “MKRKVQVKNITIGEGRPKICVPIIGKNKKDIIKEAKELKDACLDIIEWRVDFFENVENIKEVKEVLYELRSYIHDIPLLFTFRSVVEGGEKLISRDYYTTLNKEISNTGLVDLIDVELFMGDEVIDEVVNFAHKKEVKVIISNHDFNKTPKKEEIVSRLCRMQELGADLPKIAVMPQNEKDVLVLLEATNEMFKIYADRPIITMSMSGMGVISRLCGEIFGSALTFGAAKSVSAPGQISFKELNSVLNLLHKSIN” it was “not failed”; in that of “MKRKYFPFSAILGQEDLKKALLLNAVNPRIGGVLVRGEKGTAKSTAVRALGALLAAARNGSGGEGEVVVTLPLNATEEMVAGGIDFQQTMKEGRRVFQPGLLAKAHKGILYVDEVNLLDDHLVDIVLDAASSGENRVEREGITLSHPSLFVLAGTMNPEEGELRPQLLDRFGLCVEVRGEADPALRVDLMLRREAFDREPEEFSERYRAEEERLGRTIADAQSLLPSVRIPSHLRGFISELCRNSNVAGHRADLVIEQAARANAALRGSREVSVEDVTKVAGFALVHRRRDPVPPPEQKPQEPERQEEQSRDEQSRQEKPEERGDEPQQPQEGDDRRDGNDDSGNEERSQPENRDAAEQQERPDNEGQDELFSIGQSFRVRSIATPKDRKMRRGSGKRSRSRVSQKQGRYTKSTMPRGNNDIALDATLRAAAPFQRHRENPNGMAVVLQNEDIREKIREKRLGNLLIFVVDASGSMGARGRMAASKGAVMSLLLDAYQKRDKLAMVSFRKNEAFVNLPVTSSIELAARMLKEMPVGGRTPFSAGLLKGYEIAQNYLRKEPGGRPLIILVTDGKANRAIGQGKPLDEVFTISEKISREERIRFLVVDTEEPGLVTFGLAKKIAGLLDAWYYRIDDLRADTLVSIVKTMMP”, “failed”.
In the case of “MKRVALIHGWGGSFAATWEADGWSDALRAAGFDPVGVTIAGHGPEGGSHDPADYADLAGDLAAKLPAGLHGAIGFSLGTKLLLELEARSPGRNGRLVLGGIGDNLFAPEAAGPALVAALRGEATTPPPQVAALLAYAEKSASDPACLAAILERPANPVLTEDRLATAQAPILIFNSRDDAVAQPDTRLCRAMPHASHRLIEGPGHVALTSDARFREAAVEFLSK” it was “failed”; in that of “MKRVANWLAITGFVVHAISLVAGLQGHTWETISKGYFLQMLSWSMLLIYLFVWWKFKLDFLSALASPFALLIYLSSFKVAEVQSKLPESLSGLFFGLHIGTLFLSFGLMAMAFGAGVLFLHMERKIKTKEPLTGFRKDLPALSTFDRVNRLCVVWGFPLFTLGIVSGFVWAHPAWGKVITWDPKEIVSLAVWVMYALLFHQRVALGWQGRKPAVMVIWIFAVSVFSLIVVNVFMPTHHSFIQQ”, “failed”.
In the case of “MKRYQGRIIATVLAMTFIMFWNFLFYGVLGNKINWTVDLLFTLVTLISVWWLTLYIDESNQLVYKLKESEKKYKELSSETNRIMDNLQEIVFQTDRIGYITFLNQAWTTLTGYSVEESLGTMYNDYFDHEERISNHLIAQLKNKEPEGRIEVLYHRKDGSKFWGEVHYKLYYKNGQFTGSLGTLTDVTERKKAEMELFKSNQRLAMQSQKLAMAGQLAAGIAHEVRNPLTSVNGFLQLMKAEYPDRKDYFDIIFSEIKRIDSVLGELLVLAKPHQVQFKKIKINSVLQQVATLLETNAVLSHIKIEKAFQHGEEWEINGDENQIKQVFINLIKNGIEAMPDGGKITISSKAEGDCVKISIKDEGGGISQADLAKLGEPFFSTKEEGTGLGLTICLNIIGAHNGEMKIDSKLGEGSTFHILLPVDKGAASEENDIQQGCCSRATIK” it was “failed”.
On to “MKSADQLMSDIQLSLQALFQKIQPEMLESMEKQGVTPAQLFVLASLKKHGSLKVSEIAERMEVKPSAVTLMADRLEQKNLIARTHNTKDRRVIDLSLTDEGDIKFEEVLAGRKAIMARYLSFLTEEEMLQAAHITAKLAQAAETDEKQNMKRGNG”, for which the protein production entry is on record as “not failed”.
In the case of “MKSALSDFILGKKGIYGILHIIILLMSLFLVISISIDTFKGIPFYTQSSYMKIQLWICIWFLFDFVLEFFLAKHKWRYIRTHFIFLLVAIPYQNIIAYYGWTFSPEVTYLLRFIPLLRGGYALAIVVGWLTYNRASSLFVSYLTMLLATVYFASLAFFVLEHKVNPLVTDYGDALWWAFMDVTTVGSNIIAMTTTGRVLSVLLAALGMMMFPIFTVYITNLIQQSNQKKKQYYAEEEEKTASA” it was “failed”.
In the case of “MKSDYELSLRDYIAIIKDRALVLGVSAAVILAATVAVALMVPPIYQSTGTILVESQQISPELVSTNNTSFADERIEVIRQRVMTRDNLLRIIGKYDLFADKRFSESDKIDQMRNAIVVETLTTYVRGRGEATVAFNVSFEHKQPQVAKEVADELVTLFLNENLKQRTERANETTEFLTQEANKLGAELASLENQLADFKQAHANALPEHQTLRMNMLSRAELEFREVDRDYKAAQEELRYLELELSAANAGLATKVAEGTRPTRADLPEDLPSLKAEYAQLLTRYKDAHPDVVAVKRKIQALEASGGRTAAVSTVSLDAARVRAKMSAAQVRIASLAEQKRELTRKMEGYEAEILEAPQVERGLVTLMRDHDNARKKYEEIRAKEMGAKITESLEQENKAERFVLLEPPLLPEKPIKPNRKKIAALGLVLAPAGGGALVMLLEMLNQRVRGVGALESLLGKRVLVALPYIDTRADVARRKRWRNRLILAALALAAIMIGLVHVFYMPLDVLL” it was “failed”; in that of “MKSENVNKRDEYQRVFSCFDKSHQGKVSVSTIERCVDAIKSGKRAVVDQEDTTNPNPEESTDDKSLELEDFVKLVEEGEEADKEKDLKEAFKLYEESEGITPKSLKRMLSLLGESKSLKDCEVMISQFDINRDGIINFDEFRAMMQ”, “failed”; in that of “MKSKGRNRLLSLIICICIAFAFSSCVKNDLPYPVVRLSITGFEVNGQIGSAVINNEERTVTVDLLDSVDLKKVIVTRFDYSEEANTDLKVNTTIDLSSPKEVVLSLYQDYRWKIIANQTVERVFSVKNQVGGAVIDEKARQAIVYVNKNTMLNKITVKDLKLGPISSTVSPDFITLKDFTQEQKVNVTFKGKTEEWSLYAFITDKVVFTNSADGWTNVAWLYGEGQEDVVNGFEIREASSEEWTRVDQDIVVQNGVNFYVCVPHLKADTEYVCRALVDGTEDRGEEITFRTTAAIPLTGGTFDNWNQSGKVWNPWGSNETPFWDTGNQGATTLGDSNSVPTEDIWSGKTTGMAAKLESKFVGVGSAGKLAAGNLFVGKYVATDGTNGILNFGQSFSAYPTHLKGYYKYQPGVIDNSSIEYNYLKGRTDTCSIYIAIGDWDSPIEIRTKPSNRKLFDKNDKHVIAYAEFTSGTPVAVYKEFDLKLEYRATNRKPTYIVLVCSASKYGDFFTGASGSVLYVDEFSLEYDYDN”, “failed”.
To “MKSLTPHLLLCSFFTSIAPALGEGFRNKRVAFIPTAAAHEEYTAYVDSARSSWKELGSNITDVDIARMPLRTATEALEQAEIIYLSGGNSFYLLDCLRSTEIDQIIRGRLAEGAILVGESAGAIVCSPNIAYIQPMDRVPDNYSQADYTGLNLVDFFPVPHYLAPPFVKSSKEVVAQHASLPLELMNNAEAVIVEGPQRTKISSEHQ” belongs “failed”.

These data come from a protein production outcome set (Wang et al. 2014).
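Note: failed if final PepcDB status was selected cloned or expressed and not failed if soluble or beyond.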
